Legend:
Assay in all cases: transesterification rate, HPLC, Michaelis-Menten fit
Assay type in all cases: biochemical, Talaromyces wortmannii
[1] = substrate: C=COC(=O)/C=C/c1ccc(O)c(OC)c1; settings: acyl donor, co-substrate 200 mM prenol, system II microemulsion, MOPS-NaOH pH 6.0, 40 °C, 8 h
From the text: transesterification rate, HPLC, Michaelis-Menten fit on Fae7262

[2] = substrate: C=COC(=O)/C=C/c1ccc(O)c(OC)c1; settings: acyl donor, co-substrate 200 mM prenol, system I microemulsion (5.0% buffer), MOPS-NaOH pH 6.0, 40 °C, 8 h
From the text: transesterification rate, HPLC, Michaelis-Menten fit on Fae68

[3] = substrate: C=COC(=O)/C=C/c1ccc(O)c(OC)c1; settings: acyl donor, co-substrate 200 mM prenol, detergentless microemulsion n-hexane: t-butanol: 100 mM MOPS-NaOH pH 6.0 (system II, 3.2% buffer), 40 °C, 8 h
From the text: transesterification rate, HPLC, Michaelis-Menten fit on Fae125

B1: Fae7262 (Talaromyces wortmannii) (protein)
chain: ASLTQVNNFGDNPGSLQMYIYVPNTLASKPAVIVAMHPCGGSATEYYGMYDYHSPADQYGYILIYPSATRDYNCFDAYSSSSLTHNGGSDSLSIVNMVKYVISTYGADSSKVYMTGSSSGAIMTNVLAGAYPDVFAAGSAFSGMPYACLYGAGAADPIMSNQTCSQGQIQHTGQQWAAYVHNGYPGYTGRYPRLQMWHGTADNVISYADLGQEISQWTTVMGLSFTGNQTNTPLSGYTKMVYGDGSQFQAYSAAGVGHFVPTDVSVVLDWFGITSGTTTTTTSKTTSATTSTTSSAPSSTGGCTAAHWAQCGGIGYTGCTACVSPYTCQKSNDYYSQCL
notes: expressed in low-background C1 (Myceliophthora thermophila) strain; EC 3.1.1.73
Km [1]: 26.2 ± 2.9 mM

B2: Fae68 (Talaromyces wortmannii) (protein)
chain: LPETHLQARGQSTSASSQSFQAKCEAFSSKINGQKKNAFQNDITLHSVTYIPSGGNISMATIPSVCANNAISTASPVEFCRVSLNVTTSSTSQIYMEAWLPGNYTGRFLSTGNGGLGGCIQYSDMLYATQFGFATVGTNNGHFGDTGKYFLGNTEILEDFAYRALHTGVVIGKELAKLFYTQISSGYNKSYYLGCSTGGRQGWKSLEKFPDDFDGVVAGSPAFNFINLSNWGARFLGITGDNTSDTFVTATQWGNLIHDEIIRQCDALDGAVDGIIEDPDLCHPVFETLICNSSSTASSSCLTGVQANTVNQVFTPLIGEDGKWLYPRMQPGSEVLAAYIYYSGQPFQYSTDWFRYVVYNNSAWDPTTWTLADAAAADRQDPFDISTWDSSLVSGFQKKGGKVLHYHGMEDPIITSDSSKAWYKYLADSTNTSPSELDEFYRFFAISGMGHCSPGSGASYIGQGVGTYVPGSEQHPEDNVLMAMVQWVEEGIAPEFVRGAKVASNGSVEYTRKHCKFPKRNVYVGPGNYTDENAWECV
notes: as for B1
Km [2]: 16.3 ± 3.7 mM

B3: Fae125 (Talaromyces wortmannii) (protein)
chain: QQSLWGQCGGTGWTGPTQCVSGACCQVQNPYYSQCIQGNCSPASSTSSTKTTATSVSTTTSARPSGTSLSSGCGKTLSLHSGTYTTTVSGQQRQYTLTLPQNYSPNKAYQLIFGYHWLSGTMQDVVSGSYYGIQPLAGDNAIFVAPQGLNNGWGNTNGDDITFTDQMLSTLENALCIDQTQIYSMGWSYGGAMSYALACARPNVFRAVAVMSGANLSGCSPGTQPVAYYAQHGVSDSVLPFSLGEGIRDTFVKDNHCTPTNPPAPAAGSGTHIKTEYSGCDSGHPVWWVAFDGPHEPLATDAGTSSSWTPGQIWSFFSLFH
notes: expressed in low-background C1 (Myceliophthora thermophila) strain; CBM1 predicted at residues 4-30; EC 3.1.1.73
Km [3]: 21.2 ± 7.4 mM

Source: paper PMC6197793, “Optimized Enzymatic Synthesis of Feruloyl Derivatives Catalyzed by Three Novel Feruloyl Esterases from Talaromyces wortmannii in Detergentless Microemulsions” (Computational and Structural Biotechnology Journal, 2018)
